According to the supplement of paper PMC10065799, “High-throughput profiling of sequence recognition by tyrosine kinases and SH2 domains using bacterial peptide display” (eLife, 2023):
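Also: 11-residue human phosphosite peptides and single-mutation variants displayed on the E. coli surface, counted by deep sequencing, each peptide's frequency after selection divided by its frequency in the unselected input library; frequency after pTyr selection over input frequency; kinase dosed for 20-30% of maximal phosphorylation in three min.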

Each sequence was assayed on Fer (mouse) (assay: phosphorylation enrichment, bacterial display (enrichment ratio); higher = better substrate or ligand; peptides without Tyr show the background).
With SIVEDYRPPFY [ACVRL1_Y421_G416S] the phosphorylation enrichment was 0.804. TLKVGYKEKQR [EPHA3_Y659_T660K] was tested, and the phosphorylation enrichment was 0.358. CTTIHYTFMCN [TP53_Y234_N235T_YF] gave a phosphorylation enrichment of 0.575. Sequence SRDTCYLVLAV [AMH_Y195_R194C] has a phosphorylation enrichment of 0.62. For QGRQTYLPQPA [DDR2_Y813], the phosphorylation enrichment was 0.408. DRFDNYIEKVR [DES_Y122_A120D] was tested, and the phosphorylation enrichment was 0.408. In the case of GDYYCYLAEVA [YWHAG_Y133_R132C], the phosphorylation enrichment is reported as 5.61. In the case of VVTFSYKPAGN [RBL2_Y544_P547A], the phosphorylation enrichment is reported as 0.378. IMAYFYMCDRA [CASD1_Y382] gave a phosphorylation enrichment of 0.614. For PTTKTYFLHFD [HBA1_Y43_P45L], the phosphorylation enrichment was 0.532. For GLRYGYGGLGG [KRTAP20-2_Y15_V17G], the phosphorylation enrichment was 0.334. Work on YGPPQYNMQYS [ERBB2IP_Y977_I979M] yielded a phosphorylation enrichment of 0.499. DEFLEHRRIVG [FAM221A_Y20_Y20H_YF] showed a phosphorylation enrichment of 0.387. With RRIEKYVDQGK [IRAK3_Y61_H57R] the phosphorylation enrichment was 0.326. In the case of LNLDTYQKRLR [PLA2G2D_Y126_R121L], the phosphorylation enrichment is reported as 0.336. In the case of QFFQSYFNNNF [ZNF236_Y644], the phosphorylation enrichment is reported as 0.37. Sequence CEHRGYLYLAI [TEK_Y897] has a phosphorylation enrichment of 0.551. Work on GRDQPYSGAGD [TYRO3_Y828] yielded a phosphorylation enrichment of 0.31. LDYNEYVRDLN [HPRT1_Y198_F199V] was tested, and the phosphorylation enrichment was 0.535. In the case of LGSNTYPFLLM [SAG_Y120_T125M], the phosphorylation enrichment is reported as 0.646. For YADGVYLALEE [DUOX2_Y70_Q71L], the phosphorylation enrichment was 0.531. With CKPGFYNLKEK [LAMA1_Y490] the phosphorylation enrichment was 0.43. For VEGISYDFIPT [CBS_Y308_G307S], the phosphorylation enrichment was 0.96. Sequence GLAELYEFQKK [CKAP5_Y1854_K1857Q_YF] has a phosphorylation enrichment of 0.656. For SWKRRYFLLRA [APBB1IP_Y331], the phosphorylation enrichment was 0.565. In the case of FSGKAYADEER [CRIM1_Y826], the phosphorylation enrichment is reported as 0.486. Sequence QADVIYVNTQL [MERTK_Y872] has a phosphorylation enrichment of 8.63. In the case of QEIATYRRLRE [KRT17_Y384_L388R], the phosphorylation enrichment is reported as 0.508. With TPGPNYRPGFN [USH2A_Y463_YF] the phosphorylation enrichment was 0.498. Work on IVFTSYVLTIL [TAS2R16_Y239_F240V] yielded a phosphorylation enrichment of 0.731. In the case of REVPVYTDSEP [FAM120B_Y368], the phosphorylation enrichment is reported as 0.895. Work on PADRAYSWFQH [NDST1_Y711_YF] yielded a phosphorylation enrichment of 17.8. Sequence FRTGHYLCNAC [GATA1_Y223_D218Y_YF] has a phosphorylation enrichment of 0.363.

The sequences below were run against Jak2 (UniProt O60674) in the same assay as above.
Chain of Jak2 (O60674 whole entry, looked up): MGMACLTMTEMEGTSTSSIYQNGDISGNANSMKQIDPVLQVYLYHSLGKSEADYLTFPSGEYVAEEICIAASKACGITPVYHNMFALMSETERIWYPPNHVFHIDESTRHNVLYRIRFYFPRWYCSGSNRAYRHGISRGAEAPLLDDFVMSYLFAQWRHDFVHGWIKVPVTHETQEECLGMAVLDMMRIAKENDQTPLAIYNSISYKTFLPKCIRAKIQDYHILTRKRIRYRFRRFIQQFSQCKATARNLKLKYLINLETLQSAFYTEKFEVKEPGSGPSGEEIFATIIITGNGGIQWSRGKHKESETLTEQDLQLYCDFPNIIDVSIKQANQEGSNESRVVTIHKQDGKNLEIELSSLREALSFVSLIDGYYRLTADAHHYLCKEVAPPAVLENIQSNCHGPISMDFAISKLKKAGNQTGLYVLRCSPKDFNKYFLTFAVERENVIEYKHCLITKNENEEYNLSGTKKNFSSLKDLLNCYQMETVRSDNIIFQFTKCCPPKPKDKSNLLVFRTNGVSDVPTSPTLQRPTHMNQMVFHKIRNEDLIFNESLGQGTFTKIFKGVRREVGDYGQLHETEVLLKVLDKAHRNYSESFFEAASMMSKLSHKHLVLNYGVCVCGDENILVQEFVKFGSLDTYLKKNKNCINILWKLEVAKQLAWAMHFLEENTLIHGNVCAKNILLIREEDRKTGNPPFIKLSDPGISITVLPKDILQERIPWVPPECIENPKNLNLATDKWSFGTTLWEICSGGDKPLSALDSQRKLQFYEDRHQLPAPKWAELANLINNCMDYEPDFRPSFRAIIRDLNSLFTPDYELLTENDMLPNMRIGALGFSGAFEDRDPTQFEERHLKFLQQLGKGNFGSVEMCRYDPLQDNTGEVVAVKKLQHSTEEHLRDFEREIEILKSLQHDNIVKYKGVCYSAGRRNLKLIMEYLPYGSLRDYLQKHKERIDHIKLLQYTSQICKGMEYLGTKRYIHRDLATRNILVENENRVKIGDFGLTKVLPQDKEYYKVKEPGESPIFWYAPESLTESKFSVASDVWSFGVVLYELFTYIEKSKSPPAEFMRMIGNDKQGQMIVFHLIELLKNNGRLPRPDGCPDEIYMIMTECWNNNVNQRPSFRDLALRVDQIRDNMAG
In the case of SIVEDYRPPFY [ACVRL1_Y421_G416S], the phosphorylation enrichment is reported as 1.1. TLKVGYKEKQR [EPHA3_Y659_T660K] was tested, and the phosphorylation enrichment was 0.812. Sequence CTTIHYTFMCN [TP53_Y234_N235T_YF] has a phosphorylation enrichment of 0.976. SRDTCYLVLAV [AMH_Y195_R194C] gave a phosphorylation enrichment of 1.4. Sequence QGRQTYLPQPA [DDR2_Y813] has a phosphorylation enrichment of 0.778. Sequence DRFDNYIEKVR [DES_Y122_A120D] has a phosphorylation enrichment of 0.755. GDYYCYLAEVA [YWHAG_Y133_R132C] showed a phosphorylation enrichment of 6.33. VVTFSYKPAGN [RBL2_Y544_P547A] was tested, and the phosphorylation enrichment was 0.643. IMAYFYMCDRA [CASD1_Y382] was tested, and the phosphorylation enrichment was 1.46. Work on PTTKTYFLHFD [HBA1_Y43_P45L] yielded a phosphorylation enrichment of 1.98. GLRYGYGGLGG [KRTAP20-2_Y15_V17G] showed a phosphorylation enrichment of 0.44. For YGPPQYNMQYS [ERBB2IP_Y977_I979M], the phosphorylation enrichment was 0.496. Sequence DEFLEHRRIVG [FAM221A_Y20_Y20H_YF] has a phosphorylation enrichment of 0.716. With RRIEKYVDQGK [IRAK3_Y61_H57R] the phosphorylation enrichment was 0.419. In the case of LNLDTYQKRLR [PLA2G2D_Y126_R121L], the phosphorylation enrichment is reported as 0.389. QFFQSYFNNNF [ZNF236_Y644] showed a phosphorylation enrichment of 1.6. Sequence CEHRGYLYLAI [TEK_Y897] has a phosphorylation enrichment of 0.973. For GRDQPYSGAGD [TYRO3_Y828], the phosphorylation enrichment was 0.508. LDYNEYVRDLN [HPRT1_Y198_F199V] gave a phosphorylation enrichment of 1.06. For LGSNTYPFLLM [SAG_Y120_T125M], the phosphorylation enrichment was 1.31. With YADGVYLALEE [DUOX2_Y70_Q71L] the phosphorylation enrichment was 1.39. CKPGFYNLKEK [LAMA1_Y490] showed a phosphorylation enrichment of 0.602. In the case of VEGISYDFIPT [CBS_Y308_G307S], the phosphorylation enrichment is reported as 0.984. GLAELYEFQKK [CKAP5_Y1854_K1857Q_YF] gave a phosphorylation enrichment of 0.58. With SWKRRYFLLRA [APBB1IP_Y331] the phosphorylation enrichment was 0.609. With FSGKAYADEER [CRIM1_Y826] the phosphorylation enrichment was 0.837. QADVIYVNTQL [MERTK_Y872] was tested, and the phosphorylation enrichment was 1.18. Work on QEIATYRRLRE [KRT17_Y384_L388R] yielded a phosphorylation enrichment of 0.558. For TPGPNYRPGFN [USH2A_Y463_YF], the phosphorylation enrichment was 0.675. For IVFTSYVLTIL [TAS2R16_Y239_F240V], the phosphorylation enrichment was 1.55. Work on REVPVYTDSEP [FAM120B_Y368] yielded a phosphorylation enrichment of 1.38. PADRAYSWFQH [NDST1_Y711_YF] was tested, and the phosphorylation enrichment was 1.03. Work on FRTGHYLCNAC [GATA1_Y223_D218Y_YF] yielded a phosphorylation enrichment of 0.53.

What follows are sequences tested against FGFR1 (UniProt P11362) in the same assay as above.
Chain of FGFR1 (P11362 whole entry, looked up): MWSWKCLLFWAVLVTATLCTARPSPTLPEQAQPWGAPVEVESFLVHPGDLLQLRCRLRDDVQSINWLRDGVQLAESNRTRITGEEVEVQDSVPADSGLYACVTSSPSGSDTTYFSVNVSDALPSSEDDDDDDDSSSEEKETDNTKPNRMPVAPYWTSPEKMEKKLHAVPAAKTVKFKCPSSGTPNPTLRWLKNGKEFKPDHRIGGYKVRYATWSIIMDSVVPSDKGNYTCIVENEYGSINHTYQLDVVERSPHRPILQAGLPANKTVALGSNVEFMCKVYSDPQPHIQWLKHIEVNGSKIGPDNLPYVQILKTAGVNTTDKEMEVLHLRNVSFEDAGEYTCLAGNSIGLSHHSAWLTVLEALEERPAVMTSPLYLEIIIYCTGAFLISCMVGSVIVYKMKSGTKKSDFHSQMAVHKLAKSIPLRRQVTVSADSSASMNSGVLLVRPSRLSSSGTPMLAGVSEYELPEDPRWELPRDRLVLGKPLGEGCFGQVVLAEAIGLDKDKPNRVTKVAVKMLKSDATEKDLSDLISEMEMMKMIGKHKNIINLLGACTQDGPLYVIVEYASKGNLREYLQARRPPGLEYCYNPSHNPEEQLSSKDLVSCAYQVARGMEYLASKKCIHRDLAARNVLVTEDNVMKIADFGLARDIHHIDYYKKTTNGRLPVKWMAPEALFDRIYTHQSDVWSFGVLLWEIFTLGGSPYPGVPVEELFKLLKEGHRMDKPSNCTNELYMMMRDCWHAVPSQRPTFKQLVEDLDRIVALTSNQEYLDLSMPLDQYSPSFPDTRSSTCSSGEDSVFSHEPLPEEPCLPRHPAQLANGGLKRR
SIVEDYRPPFY [ACVRL1_Y421_G416S] gave a phosphorylation enrichment of 0.552. Work on TLKVGYKEKQR [EPHA3_Y659_T660K] yielded a phosphorylation enrichment of 0.348. With CTTIHYTFMCN [TP53_Y234_N235T_YF] the phosphorylation enrichment was 0.718. For SRDTCYLVLAV [AMH_Y195_R194C], the phosphorylation enrichment was 0.786. In the case of QGRQTYLPQPA [DDR2_Y813], the phosphorylation enrichment is reported as 0.552. DRFDNYIEKVR [DES_Y122_A120D] was tested, and the phosphorylation enrichment was 0.539. Sequence GDYYCYLAEVA [YWHAG_Y133_R132C] has a phosphorylation enrichment of 13.5. VVTFSYKPAGN [RBL2_Y544_P547A] was tested, and the phosphorylation enrichment was 0.399. Sequence IMAYFYMCDRA [CASD1_Y382] has a phosphorylation enrichment of 1.09. PTTKTYFLHFD [HBA1_Y43_P45L] was tested, and the phosphorylation enrichment was 3.23. Work on GLRYGYGGLGG [KRTAP20-2_Y15_V17G] yielded a phosphorylation enrichment of 0.339. In the case of YGPPQYNMQYS [ERBB2IP_Y977_I979M], the phosphorylation enrichment is reported as 0.442. In the case of DEFLEHRRIVG [FAM221A_Y20_Y20H_YF], the phosphorylation enrichment is reported as 0.45. Sequence RRIEKYVDQGK [IRAK3_Y61_H57R] has a phosphorylation enrichment of 0.736. LNLDTYQKRLR [PLA2G2D_Y126_R121L] was tested, and the phosphorylation enrichment was 0.69. In the case of QFFQSYFNNNF [ZNF236_Y644], the phosphorylation enrichment is reported as 0.643. For CEHRGYLYLAI [TEK_Y897], the phosphorylation enrichment was 0.726. With GRDQPYSGAGD [TYRO3_Y828] the phosphorylation enrichment was 0.559. In the case of LDYNEYVRDLN [HPRT1_Y198_F199V], the phosphorylation enrichment is reported as 0.951. LGSNTYPFLLM [SAG_Y120_T125M] was tested, and the phosphorylation enrichment was 1.91. YADGVYLALEE [DUOX2_Y70_Q71L] was tested, and the phosphorylation enrichment was 1.12. CKPGFYNLKEK [LAMA1_Y490] was tested, and the phosphorylation enrichment was 0.472. Work on VEGISYDFIPT [CBS_Y308_G307S] yielded a phosphorylation enrichment of 0.564. GLAELYEFQKK [CKAP5_Y1854_K1857Q_YF] showed a phosphorylation enrichment of 0.539. Sequence SWKRRYFLLRA [APBB1IP_Y331] has a phosphorylation enrichment of 0.614. In the case of FSGKAYADEER [CRIM1_Y826], the phosphorylation enrichment is reported as 0.694. Sequence QADVIYVNTQL [MERTK_Y872] has a phosphorylation enrichment of 2.29. QEIATYRRLRE [KRT17_Y384_L388R] was tested, and the phosphorylation enrichment was 0.77. Sequence TPGPNYRPGFN [USH2A_Y463_YF] has a phosphorylation enrichment of 0.647. Work on IVFTSYVLTIL [TAS2R16_Y239_F240V] yielded a phosphorylation enrichment of 0.71. In the case of REVPVYTDSEP [FAM120B_Y368], the phosphorylation enrichment is reported as 0.588. PADRAYSWFQH [NDST1_Y711_YF] showed a phosphorylation enrichment of 1.84. FRTGHYLCNAC [GATA1_Y223_D218Y_YF] gave a phosphorylation enrichment of 0.566.

These sequences were tested against Fes (UniProt P07332) in the same assay as above.
Chain of Fes (P07332 whole entry, looked up): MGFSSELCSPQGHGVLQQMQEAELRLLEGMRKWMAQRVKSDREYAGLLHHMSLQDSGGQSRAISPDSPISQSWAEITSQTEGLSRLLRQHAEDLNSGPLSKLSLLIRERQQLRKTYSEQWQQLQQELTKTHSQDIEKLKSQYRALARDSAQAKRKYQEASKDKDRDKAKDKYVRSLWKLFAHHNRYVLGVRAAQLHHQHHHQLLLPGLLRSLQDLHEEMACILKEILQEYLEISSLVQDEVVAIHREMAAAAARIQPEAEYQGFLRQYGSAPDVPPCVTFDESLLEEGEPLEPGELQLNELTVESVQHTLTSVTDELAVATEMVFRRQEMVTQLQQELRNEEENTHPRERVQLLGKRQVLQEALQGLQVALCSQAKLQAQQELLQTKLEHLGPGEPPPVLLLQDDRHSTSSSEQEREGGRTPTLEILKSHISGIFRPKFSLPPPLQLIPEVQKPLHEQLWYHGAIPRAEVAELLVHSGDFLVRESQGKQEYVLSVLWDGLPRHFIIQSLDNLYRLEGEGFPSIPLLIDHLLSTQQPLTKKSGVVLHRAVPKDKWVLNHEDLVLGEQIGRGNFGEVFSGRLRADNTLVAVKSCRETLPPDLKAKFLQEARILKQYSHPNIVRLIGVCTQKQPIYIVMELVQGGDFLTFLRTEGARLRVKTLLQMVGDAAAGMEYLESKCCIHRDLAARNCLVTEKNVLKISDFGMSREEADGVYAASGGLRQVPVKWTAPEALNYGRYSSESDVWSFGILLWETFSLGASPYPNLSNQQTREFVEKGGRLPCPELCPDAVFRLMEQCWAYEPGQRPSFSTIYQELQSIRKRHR
For SIVEDYRPPFY [ACVRL1_Y421_G416S], the phosphorylation enrichment was 1.25. For TLKVGYKEKQR [EPHA3_Y659_T660K], the phosphorylation enrichment was 0.699. In the case of CTTIHYTFMCN [TP53_Y234_N235T_YF], the phosphorylation enrichment is reported as 1.14. SRDTCYLVLAV [AMH_Y195_R194C] showed a phosphorylation enrichment of 1.48. In the case of QGRQTYLPQPA [DDR2_Y813], the phosphorylation enrichment is reported as 0.821. Work on DRFDNYIEKVR [DES_Y122_A120D] yielded a phosphorylation enrichment of 0.774. Work on GDYYCYLAEVA [YWHAG_Y133_R132C] yielded a phosphorylation enrichment of 1.64. With VVTFSYKPAGN [RBL2_Y544_P547A] the phosphorylation enrichment was 0.83. Sequence IMAYFYMCDRA [CASD1_Y382] has a phosphorylation enrichment of 1.45. For PTTKTYFLHFD [HBA1_Y43_P45L], the phosphorylation enrichment was 1.79. In the case of GLRYGYGGLGG [KRTAP20-2_Y15_V17G], the phosphorylation enrichment is reported as 0.564. For YGPPQYNMQYS [ERBB2IP_Y977_I979M], the phosphorylation enrichment was 0.577. In the case of DEFLEHRRIVG [FAM221A_Y20_Y20H_YF], the phosphorylation enrichment is reported as 0.902. For RRIEKYVDQGK [IRAK3_Y61_H57R], the phosphorylation enrichment was 0.662. In the case of LNLDTYQKRLR [PLA2G2D_Y126_R121L], the phosphorylation enrichment is reported as 0.613. In the case of QFFQSYFNNNF [ZNF236_Y644], the phosphorylation enrichment is reported as 1.14. Work on CEHRGYLYLAI [TEK_Y897] yielded a phosphorylation enrichment of 1.51. Work on GRDQPYSGAGD [TYRO3_Y828] yielded a phosphorylation enrichment of 0.765. LDYNEYVRDLN [HPRT1_Y198_F199V] showed a phosphorylation enrichment of 1.23. For LGSNTYPFLLM [SAG_Y120_T125M], the phosphorylation enrichment was 1.73. Sequence YADGVYLALEE [DUOX2_Y70_Q71L] has a phosphorylation enrichment of 1.31. CKPGFYNLKEK [LAMA1_Y490] gave a phosphorylation enrichment of 0.793. VEGISYDFIPT [CBS_Y308_G307S] gave a phosphorylation enrichment of 0.982. With GLAELYEFQKK [CKAP5_Y1854_K1857Q_YF] the phosphorylation enrichment was 0.857. SWKRRYFLLRA [APBB1IP_Y331] gave a phosphorylation enrichment of 0.631. Work on FSGKAYADEER [CRIM1_Y826] yielded a phosphorylation enrichment of 1.03. QADVIYVNTQL [MERTK_Y872] gave a phosphorylation enrichment of 1.43. QEIATYRRLRE [KRT17_Y384_L388R] showed a phosphorylation enrichment of 0.936. With TPGPNYRPGFN [USH2A_Y463_YF] the phosphorylation enrichment was 0.716. With IVFTSYVLTIL [TAS2R16_Y239_F240V] the phosphorylation enrichment was 1.73. REVPVYTDSEP [FAM120B_Y368] gave a phosphorylation enrichment of 1.35. PADRAYSWFQH [NDST1_Y711_YF] showed a phosphorylation enrichment of 1.43. In the case of FRTGHYLCNAC [GATA1_Y223_D218Y_YF], the phosphorylation enrichment is reported as 0.634.
